The target of the assay is T1, recombinant biotin peptide-6 x His-tagged SARS-CoV-2 N protein (SARS-CoV-2 N-Bio-His6), biotinylated (SARS-CoV-2, UniProt P0DTC9 1-419).
T1 construct: also called recombinant SARS-CoV-2 N fusion protein
Nature of the assay: ELISA. Conditions: both partners purified. Background: In an ELISA, binding on a coated surface is turned into a signal by an enzyme label.

B1: SARS-CoV-2 Spike CD-Fc (fusion protein containing the SARS-CoV-2 Spike C-terminal domain and the human IgG1 Fc domain) (Fc fusion)
chain: LCCMTSCCSCLKGCCSCGSCCKFDEDDSEPVLKGVKLHYT
notes: also called recombinant SARS-CoV-2 Spike CD fusion protein
On to B1, for which the binding result is “binds”.

(Values after paper PMC8688357 (Frontiers in Microbiology, 2021).)
